From publication PMC1266349, “Nonnatural amino acid incorporation into the methionine 214 position of the metzincin Pseudomonas aeruginosa alkaline protease” (BMC Biochemistry, 2005)

System: N=C(N)NCCC[C@H](NC(=O)OCc1ccccc1)C(=O)N[C@@H](CCCNC(=N)N)C(=O)Nc1ccc([N+](=O)[O-])cc1
Assay: purified protein
Conditions: 20 mM HEPES, 100 μg enzyme per assay; revised conditions, unlabelled recombinant protein

In the case of “AprA (alkaline protease from Pseudomonas aeruginosa), mature full-length (Pseudomonas aeruginosa PAO1)”, the Km is reported as 15.4 ± 0.9 µM and the kcat is reported as 0.0095 ± 0.00033 s⁻¹.
